The values that follow are results of earlier work, collected in US20240408179A1, “ORAL DELIVERY OF THERAPEUTIC AGENTS” (GUANGZHOU DAZHOU BIOMEDICINE LTD., priority 2021, published 2024).

For data set [1] the following is noted: humans, co-formulated with SNAC.
Data set [2] has as its system T2D patients with high risk of cardiovascular disease events. The following applies: empagliflozin group versus placebo group.

As to semaglutide, in data set [1], the “oral bioavailability (BA %)” value is listed as 0.5-1%. For the compound `OC[C@H]1O[C@@H](c2ccc(Cl)c(Cc3ccc(O[C@H]4CCOC4)cc3)c2)[C@H](O)[C@@H](O)[C@@H]1O` [empagliflozin], in data set [2], the “relative risk reduction in death from cardiovascular causes” value is given as 38%.
